B1: TPP-969: PDA-6GS-HSA2-6GS-172E1-13-His (bispecific antibody)
chain: EVQLVESGGGLVQPGRSLRLSCAASGFTFDDYALHWVRQAPGKDLEWVSGISWNGGSYGYADSVKGRFTISRDNAKNSLYLQMNSLRAEDTALYYCVREKGPGLTGSTADYYGLDAWGQGTMVTVSSGGGGSGGGGSGGGGSGGGGSGGGGSGGGGSEVQLVESGGGLVKPGGSLRLSCAASGFTFSNYNMNWVRQAPGKGLEWVSSISSAGTHIYYADSVKGRFTISRDNAKNSLYLQMNSLRAEDTAVYYCARDPHSTGWYKDFDYWGQGTLVTVSSGGGGSGGGGSGGGGSGGGGSGGGGSGGGGSEVQLVESGGGVVQPGGSLRLSCAASGFTFSNYGMHWVRQAPGKGLEWVAVISNDGNTKTYADSVKGRFTISRDNSKNTLYLQMNSLRAEDTAVYYCAQDETTTVTASYYFDYWGQGTLVTVSSAAAHHHHHH
notes: Single-chain VH fusion (PD-1 VH, HSA VH, CD137 VH), His tag
B2: TPP-1010: PD138G7(G109D)-6GS-HSA2-6GS- CD137D -His (bispecific antibody)
chain: EVQLVESGGGVVRPGGSLRLSCAASGFTFDDYAMSWVRQAPGKGLEWVSGITWNGGSTGYADSVKDRFTISRDNAKNSLYLQMNSLRAEDTALYYCVRDKYSYAWSYDDFDIWGQGTMVTVSSGGGGSGGGGSGGGGSGGGGSGGGGSGGGGSEVQLVESGGGLVKPGGSLRLSCAASGFTFSNYNMNWVRQAPGKGLEWVSSISSAGTHIYYADSVKGRFTISRDNAKNSLYLQMNSLRAEDTAVYYCARDPHSTGWYKDFDYWGQGTLVTVSSGGGGSGGGGSGGGGSGGGGSGGGGSGGGGSEVQLVESGGGVVQPGGSLRLSCAASGFTFSNYGMHWVRQAPGKGLEWVAVISNDGNTKTYADSVKGRFTISRDNSKNTLYLQMNSLRAEDTAVYYCAQDETTTVTASYYFDYWGQGTLVTVSSAAAHHHHHH
notes: as for B1
B3: TPP-972: CD137A-6GS-PDA-6GS-HSA2-His (bispecific antibody)
chain: EVQLVESGGGLVQPGGSLRLSCAASGFTLSNYWMNWVRQAPGKGLEWVANINQDGSERYYVDSVKGRFTISRDNAKNSLYLQMNSLRAEDTAVYYCARGGEGYGVDHYGLDVSGQGTTVTVSSGGGGSGGGGSGGGGSGGGGSGGGGSGGGGSEVQLVESGGGLVQPGRSLRLSCAASGFTFDDYALHWVRQAPGKDLEWVSGISWNGGSYGYADSVKGRFTISRDNAKNSLYLQMNSLRAEDTALYYCVREKGPGLTGSTADYYGLDAWGQGTMVTVSSGGGGSGGGGSGGGGSGGGGSGGGGSGGGGSEVQLVESGGGLVKPGGSLRLSCAASGFTFSNYNMNWVRQAPGKGLEWVSSISSAGTHIYYADSVKGRFTISRDNAKNSLYLQMNSLRAEDTAVYYCARDPHSTGWYKDFDYWGQGTLVTVSSAAAHHHHHH
notes: Single-chain VH fusion (CD137 VH, PD-1 VH, HSA VH), His tag
B4: TPP-973: CD137A -6GS-PDA2-6GS-HSA2-His (bispecific antibody)
chain: EVQLVESGGGLVQPGGSLRLSCAASGFTLSNYWMNWVRQAPGKGLEWVANINQDGSERYYVDSVKGRFTISRDNAKNSLYLQMNSLRAEDTAVYYCARGGEGYGVDHYGLDVSGQGTTVTVSSGGGGSGGGGSGGGGSGGGGSGGGGSGGGGSEVQLVESGGGVVRPGGSLRLSCAASGFTFDDYAMSWVRQAPGKGLEWVSGITWNAGSTGYADSVKGRFTISRDNAKNSLYLQMNSLRAEDTALYYCVRDKYSYAWSYDDFDIWGQGTMVTVSSGGGGSGGGGSGGGGSGGGGSGGGGSGGGGSEVQLVESGGGLVKPGGSLRLSCAASGFTFSNYNMNWVRQAPGKGLEWVSSISSAGTHIYYADSVKGRFTISRDNAKNSLYLQMNSLRAEDTAVYYCARDPHSTGWYKDFDYWGQGTLVTVSSAAAHHHHHH
notes: as for B3
B5: TPP-1027: CD137A -6GS-HSA2-6GS-PD138G7(G109D)-His (bispecific antibody)
chain: EVQLVESGGGLVQPGGSLRLSCAASGFTLSNYWMNWVRQAPGKGLEWVANINQDGSERYYVDSVKGRFTISRDNAKNSLYLQMNSLRAEDTAVYYCARGGEGYGVDHYGLDVSGQGTTVTVSSGGGGSGGGGSGGGGSGGGGSGGGGSGGGGSEVQLVESGGGLVKPGGSLRLSCAASGFTFSNYNMNWVRQAPGKGLEWVSSISSAGTHIYYADSVKGRFTISRDNAKNSLYLQMNSLRAEDTAVYYCARDPHSTGWYKDFDYWGQGTLVTVSSGGGGSGGGGSGGGGSGGGGSGGGGSGGGGSEVQLVESGGGVVRPGGSLRLSCAASGFTFDDYAMSWVRQAPGKGLEWVSGITWNGGSTGYADSVKDRFTISRDNAKNSLYLQMNSLRAEDTALYYCVRDKYSYAWSYDDFDIWGQGTMVTVSSAAAHHHHHH
notes: Single-chain VH fusion (CD137 VH, HSA VH, PD-1 VH), His tag
B6: TPP-1028: CD137A -6GS-HSA3-6GS-PD138G7(G109D)-His (bispecific antibody)
chain: EVQLVESGGGLVQPGGSLRLSCAASGFTLSNYWMNWVRQAPGKGLEWVANINQDGSERYYVDSVKGRFTISRDNAKNSLYLQMNSLRAEDTAVYYCARGGEGYGVDHYGLDVSGQGTTVTVSSGGGGSGGGGSGGGGSGGGGSGGGGSGGGGSEVQLLESGGGLVKPGGSLRLSCAASGFTVSSYTMNWVRQAPGKGLEWVSSISSSGRYIYYADSVKGRFTISRDNAKNSLYLQMNSLRAEDTAVYYCARDPRMVGNPHEFDIWGQGTMVTVSSGGGGSGGGGSGGGGSGGGGSGGGGSGGGGSEVQLVESGGGVVRPGGSLRLSCAASGFTFDDYAMSWVRQAPGKGLEWVSGITWNGGSTGYADSVKDRFTISRDNAKNSLYLQMNSLRAEDTALYYCVRDKYSYAWSYDDFDIWGQGTMVTVSSAAAHHHHHH
notes: as for B5
B7: TPP-1245 CD137A-6GS-PDA2-6GS-HSA2 (bispecific antibody)
chain: EVQLVESGGGLVQPGGSLRLSCAASGFTLSNYWMNWVRQAPGKGLEWVANINQDGSERYYVDSVKGRFTISRDNAKNSLYLQMNSLRAEDTAVYYCARGGEGYGVDHYGLDVSGQGTTVTVSSGGGGSGGGGSGGGGSGGGGSGGGGSGGGGSEVQLVESGGGVVRPGGSLRLSCAASGFTFDDYAMSWVRQAPGKGLEWVSGITWNAGSTGYADSVKGRFTISRDNAKNSLYLQMNSLRAEDTALYYCVRDKYSYAWSYDDFDIWGQGTMVTVSSGGGGSGGGGSGGGGSGGGGSGGGGSGGGGSEVQLVESGGGLVKPGGSLRLSCAASGFTFSNYNMNWVRQAPGKGLEWVSSISSAGTHIYYADSVKGRFTISRDNAKNSLYLQMNSLRAEDTAVYYCARDPHSTGWYKDFDYWGQGTLVTVSS
B8: TPP-1246 CD137A-6GS-HSA2-6GS-PD138G7(G109D) (bispecific antibody)
chain: EVQLVESGGGLVQPGGSLRLSCAASGFTLSNYWMNWVRQAPGKGLEWVANINQDGSERYYVDSVKGRFTISRDNAKNSLYLQMNSLRAEDTAVYYCARGGEGYGVDHYGLDVSGQGTTVTVSSGGGGSGGGGSGGGGSGGGGSGGGGSGGGGSEVQLVESGGGLVKPGGSLRLSCAASGFTFSNYNMNWVRQAPGKGLEWVSSISSAGTHIYYADSVKGRFTISRDNAKNSLYLQMNSLRAEDTAVYYCARDPHSTGWYKDFDYWGQGTLVTVSSGGGGSGGGGSGGGGSGGGGSGGGGSGGGGSEVQLVESGGGVVRPGGSLRLSCAASGFTFDDYAMSWVRQAPGKGLEWVSGITWNGGSTGYADSVKDRFTISRDNAKNSLYLQMNSLRAEDTALYYCVRDKYSYAWSYDDFDIWGQGTMVTVSS
B9: TPP-1247 CD137A-6GS-HSA3-6GS-PD138G7(G109D) (bispecific antibody)
chain: EVQLVESGGGLVQPGGSLRLSCAASGFTLSNYWMNWVRQAPGKGLEWVANINQDGSERYYVDSVKGRFTISRDNAKNSLYLQMNSLRAEDTAVYYCARGGEGYGVDHYGLDVSGQGTTVTVSSGGGGSGGGGSGGGGSGGGGSGGGGSGGGGSEVQLLESGGGLVKPGGSLRLSCAASGFTVSSYTMNWVRQAPGKGLEWVSSISSSGRYIYYADSVKGRFTISRDNAKNSLYLQMNSLRAEDTAVYYCARDPRMVGNPHEFDIWGQGTMVTVSSGGGGSGGGGSGGGGSGGGGSGGGGSGGGGSEVQLVESGGGVVRPGGSLRLSCAASGFTFDDYAMSWVRQAPGKGLEWVSGITWNGGSTGYADSVKDRFTISRDNAKNSLYLQMNSLRAEDTALYYCVRDKYSYAWSYDDFDIWGQGTMVTVSS
B10: TPP-1290 PD138G7(G109D)-6GS-CD137A-6GS-HSA2 (bispecific antibody)
chain: EVQLVESGGGVVRPGGSLRLSCAASGFTFDDYAMSWVRQAPGKGLEWVSGITWNGGSTGYADSVKDRFTISRDNAKNSLYLQMNSLRAEDTALYYCVRDKYSYAWSYDDFDIWGQGTMVTVSSGGGGSGGGGSGGGGSGGGGSGGGGSGGGGSEVQLVESGGGLVQPGGSLRLSCAASGFTLSNYWMNWVRQAPGKGLEWVANINQDGSERYYVDSVKGRFTISRDNAKNSLYLQMNSLRAEDTAVYYCARGGEGYGVDHYGLDVSGQGTTVTVSSGGGGSGGGGSGGGGSGGGGSGGGGSGGGGSEVQLVESGGGLVKPGGSLRLSCAASGFTFSNYNMNWVRQAPGKGLEWVSSISSAGTHIYYADSVKGRFTISRDNAKNSLYLQMNSLRAEDTAVYYCARDPHSTGWYKDFDYWGQGTLVTVSS

Experiments:
[1] = target: T1, human CD137 expressed on CHO cells (human, UniProt Q07011 18-255); assay: FMAT/Mirrorball on CHO huCD137 cells
T1 construct: also called CHO huCD137; CHO human CD137 cells
Outline: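 His-tagged VH molecules bound to CHO cells expressing human PD-1 or human CD137, with CHO parent cells as control, in PBS pH 7.4, 0.1% BSA, 0.05% sodium azide. Read by FMAT on Mirrorball (ex 488/640 nm); binding taken as FL2 median fluorescence intensity of FL5-gated events.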

[2] = target: T1, human CD137 expressed on CHO cells; assay: flow cytometry on CHO huCD137 cells
[3] = target: T2, human PD-1 expressed on CHO cells (human, UniProt Q15116 21-288); assay: FMAT/Mirrorball on CHO huPD1 cells
T2 construct: also called CHO huPD1; CHO human PD1 cells
Description: Binding of His-tagged molecules to CHO human CD137, CHO parent and CHO human PD1 cells was assessed using Fluorescence Microvolume Assay Technology (FMAT). All reagents were prepared in FMAT assay buffer (pH 7.4) containing PBS, 0.1% Bovine Serum Albumin, 0.05% Sodium Azide. […] Fluorescence emission was then measured on the TTP Mirrorball plate reader in the FL2 (502 nm-537 nm) and FL5 (677-800 nm) channels following excitation at 488 nm and 640 nm. Data was gated on FL5 perimeter and peak intensity and the FL2 median mean fluorescence intensity of the gated data used for determination of VH binding. Monovalent CD137 specific Humabody® VH, and trispecific molecules with a CD137 binding arm bound to CHO CD137 expressing cells. Trispecific Humabody® VH, with a PD1 binding arm bound to PD1 expressing cells.

[4] = target: T2, human PD-1 expressed on CHO cells; assay: flow cytometry on CHO huPD1 cells

Binder	EC50 [1] [nM]	EC50 [2] [nM]	EC50 [3] [nM]	EC50 [4] [nM]
B1	0.171	11.6	0.142	–
B2	0.101	9.39	0.162	0.531
B3	0.0533	–	0.15	33
B4	0.0781	0.595	0.481	108
B5	0.0672	1.47	0.173	5.01
B6	0.151	1.99	0.583	22.7
B7	–	4.4	–	183
B8	–	2.48	–	20.5
B9	–	3.39	–	25.4
B10	–	4.45	–	22.7
